Source: US12583895B2, “Polypeptides for restoring endothelial function and methods of use thereof” (Vanderbilt University, priority 2019, dated 2026)
“Also recorded” adds a separate entry of the source. Non-standard residues stand in square brackets, D forms with d. No end group written: not given here. pS = N[C@@H](COP(=O)(O)O)C(=O)O

Assays:
p38 MAPKα (MAPK14) = p38 MAPKα (MAPK14) (Homo sapiens, UniProt Q16539); assay: SelectScreen kinase profiling; format: biochemical; settings: peptide 100 μM, single concentration
p38 MAPKα (MAPK14), sequence (Q16539 whole entry): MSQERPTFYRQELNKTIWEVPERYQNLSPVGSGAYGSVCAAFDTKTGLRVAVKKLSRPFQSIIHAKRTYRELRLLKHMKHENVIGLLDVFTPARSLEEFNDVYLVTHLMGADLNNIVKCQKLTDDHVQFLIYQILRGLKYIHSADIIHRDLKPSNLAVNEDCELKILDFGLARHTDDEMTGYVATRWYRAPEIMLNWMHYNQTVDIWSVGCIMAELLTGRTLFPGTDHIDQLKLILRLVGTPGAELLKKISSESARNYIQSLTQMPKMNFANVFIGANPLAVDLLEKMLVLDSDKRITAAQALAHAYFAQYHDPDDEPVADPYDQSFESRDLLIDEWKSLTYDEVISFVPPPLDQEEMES
Method: FIGS. 14A and 14B show kinase profiling of polypeptides. NiPp, scr3NiPp, and NiPp3 were profiled against 490 kinases at 100 uM using the SelectScreen Kinase Profiling Service (www.thermofisher.com). […] NiPp inhibits MSK1 and p38MAPK alpha by >60%. These two kinases are central to the p38MAPK kinase signaling cascade that play important roles in stress and inflammatory responses. NiPp-specific inhibitory activity to p38 MAPK were not detected for NiPp3 (non-phosphorylated) or scr3NiPp (scrambled) polypeptides.
(§1) Kinase profiling. NiPp was dissolved in DMSO, screened at a single concentration of 100 μM using in vitro kinase assays (SelectScreen Kinase Profiling Service; ThermoFisher Scientific, Madison WI) including the Z'LYTE and Adapta kinase activity assays and the LanthaScreen Eu Kinase Binding Assay). Candidate interactions were predicted using STRING Version 11 (www.string-db-org) with the human database at confidence=0.7.
As injury leads to increased p38 MAPK phosphorylation and decreased Niban phosphorylation, one of the mechanisms by which NiPp restores function after endothelial injury can be kinase inhibition. A kinase profiling was performed using three different profiling platforms that measure activity and kinase/substrate binding. […]

rat aorta = assay: Endothelial-dependent relaxation of rat aorta after cytokine (IL1β / cytomix) injury; format: cell-based; settings: 2 hrs; for endothelial function (percent relaxation to carbachol) after IL1β injury: IL1β 50 ng/ml, peptide 100 μM; for endothelial function (percent relaxation to carbachol) after cytokine injury: IL1β alone 50 ng/ml or cytomix (IL1β, TNFa, IFNg), peptide 500 μM
Method: Freshly isolated rat aorta (RA) was cut into rings and suspended in the muscle bath. Tissues were then treated with either IL1β alone (50 ng/ml) or cytomix (IL1β 50 ng/ml, TNFa, 10 ng/ml, IFNg 50 ng/ml) in the absence or presence of NiPp (500 μM) for 2 hrs, contracted with PE, and then treated with escalating doses of carbachol (CCH; 10^−8 to 10^−5M). The percent relaxation was determined as a change to the maximal PE-induced contraction. n=5-7 rats. *p<0.05 in two-way ANOVA with Tukey post-test. NiPp restores cytokines-induced endothelial dysfunction in RA.
Freshly isolated rat aorta (RA) was cut into rings and suspended in the muscle bath. Tissues were then treated with the cytokine IL1β (50 ng/ml) in the absence or presence of NiPp, NiPp3, or scr3NiPp (100 μM) for 2 hrs, contracted with PE, and then treated with escalating doses of carbachol (CCH; 10^−8 to 10^−5 M). The percent relaxation was determined as a change to the maximal PE-induced contraction. n=5-7 rats. *p<0.05 in two-way ANOVA with Tukey post-tests. There were significant differences between IL1β-treated vs ctrl or NiPp-treated RA.
Freshly isolated rat aorta (RA) was cut into rings and suspended in the muscle bath. Tissues were then treated with either IL1β alone (50 ng/ml) or cytomix (IL1β 50 ng/ml, TNFa, 10 ng/ml, IFNg 50 ng/ml) in the absence or presence of NiPp (500 μM) for 2 hrs, contracted with PE, and then treated with escalating doses of carbachol (CCH; 10−8 to 10−5 M).
Freshly isolated rat aorta (RA) was cut into rings and suspended in the muscle bath. Tissues were then treated with the cytokine IL1β (50 ng/ml) in the absence or presence of NiPp, NiPp3, or scr3NiPp (100 μM) for 2 hrs, contracted with PE, and then treated with escalating doses of carbachol (CCH; 10^−8 to 10^−5 M). NiPp3 (SEQ ID NO:77) is a control polypeptide containing non-phosphorylated sequence of X2 of NiPp. scr3NiPp3 (SEQ ID NO:79) is a control polypeptide containing scrambled sequence of X2 of NiPp.

FGFR1 = FGFR1 (Homo sapiens, UniProt P11362); assay: SelectScreen kinase profiling; format: biochemical; settings: NiPp 100 μM; kinases inhibited at >40% are listed
FGFR1, sequence (P11362 22-822): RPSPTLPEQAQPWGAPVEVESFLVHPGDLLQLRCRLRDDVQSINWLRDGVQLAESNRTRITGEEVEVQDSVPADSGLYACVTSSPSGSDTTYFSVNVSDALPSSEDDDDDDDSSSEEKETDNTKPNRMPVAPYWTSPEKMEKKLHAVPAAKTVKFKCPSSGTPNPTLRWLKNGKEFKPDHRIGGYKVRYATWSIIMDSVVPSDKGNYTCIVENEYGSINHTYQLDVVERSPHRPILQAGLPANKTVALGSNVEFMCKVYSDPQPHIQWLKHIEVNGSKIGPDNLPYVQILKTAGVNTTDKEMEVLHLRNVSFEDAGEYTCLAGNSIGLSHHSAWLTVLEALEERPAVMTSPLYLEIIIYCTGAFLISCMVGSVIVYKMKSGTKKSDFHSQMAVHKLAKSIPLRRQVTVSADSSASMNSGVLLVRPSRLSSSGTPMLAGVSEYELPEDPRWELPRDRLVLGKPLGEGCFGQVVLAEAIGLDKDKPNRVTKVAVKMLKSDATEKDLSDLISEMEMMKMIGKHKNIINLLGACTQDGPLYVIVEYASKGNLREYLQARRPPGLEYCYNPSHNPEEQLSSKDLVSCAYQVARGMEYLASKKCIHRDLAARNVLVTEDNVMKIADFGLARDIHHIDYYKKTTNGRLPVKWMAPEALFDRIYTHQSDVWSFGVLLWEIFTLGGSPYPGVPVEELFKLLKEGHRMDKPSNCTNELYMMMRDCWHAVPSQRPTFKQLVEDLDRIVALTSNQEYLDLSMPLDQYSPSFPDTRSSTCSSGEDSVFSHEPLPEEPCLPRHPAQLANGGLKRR
Method: as §1
(§2) As injury leads to increased p38 MAPK phosphorylation and decreased Niban phosphorylation, one of the mechanisms by which NiPp restores function after endothelial injury can be kinase inhibition. A kinase profiling was performed using three different profiling platforms that measure activity and kinase/substrate binding. Kinases of which activity or substrate binding were inhibited by NiPp (100 μM) at >40% are listed and shown in a kinase dendrogram (FIGS. 14A, 14B, 19A and 19B).
(§3) The top two candidate kinase targets of NiPp were mitogen- and stress-activated kinase 1 (MSK1; also known as RPS6KA5) and p38 MAPKα (MAPK14), which were inhibited by 66% and 61%, respectively. MSK1 is an AGC kinase of the RSK family that is phosphorylated by ERK and p38 MAPK in response to cellular stress. Other kinases inhibited by the NiPp include CKD18 of the CMGC kinase family), FGFR1 of the TK family, and the PIK3R3 kinase (FIGS. 19A and 19B).

CKD18 = CKD18 (Homo sapiens, UniProt Q07002); assay: SelectScreen kinase profiling; format: biochemical; settings: NiPp 100 μM; kinases inhibited at >40% are listed
CKD18, sequence (Q07002 whole entry): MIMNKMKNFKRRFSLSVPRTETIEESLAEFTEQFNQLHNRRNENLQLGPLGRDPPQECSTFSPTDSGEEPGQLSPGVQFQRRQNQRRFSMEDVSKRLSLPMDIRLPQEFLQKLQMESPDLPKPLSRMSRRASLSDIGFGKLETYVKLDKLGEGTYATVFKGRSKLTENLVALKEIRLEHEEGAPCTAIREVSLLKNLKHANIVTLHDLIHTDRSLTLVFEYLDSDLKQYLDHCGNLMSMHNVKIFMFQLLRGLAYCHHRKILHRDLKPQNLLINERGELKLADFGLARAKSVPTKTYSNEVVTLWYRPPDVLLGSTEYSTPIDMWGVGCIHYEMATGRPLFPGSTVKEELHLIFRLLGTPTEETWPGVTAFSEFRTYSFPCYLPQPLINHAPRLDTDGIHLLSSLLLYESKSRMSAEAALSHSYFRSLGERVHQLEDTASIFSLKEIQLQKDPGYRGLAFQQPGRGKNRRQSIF
CKD18, sequence (Q8ND76 whole entry partner): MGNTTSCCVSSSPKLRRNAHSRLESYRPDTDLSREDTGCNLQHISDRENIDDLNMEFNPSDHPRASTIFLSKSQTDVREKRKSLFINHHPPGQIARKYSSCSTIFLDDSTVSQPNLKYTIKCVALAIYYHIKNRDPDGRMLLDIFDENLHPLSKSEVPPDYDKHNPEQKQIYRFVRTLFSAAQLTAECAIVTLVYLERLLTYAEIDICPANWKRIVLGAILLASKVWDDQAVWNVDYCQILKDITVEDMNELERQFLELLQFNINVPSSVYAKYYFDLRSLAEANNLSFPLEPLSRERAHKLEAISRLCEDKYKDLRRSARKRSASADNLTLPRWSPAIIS
Method: as §1, §2, §3

PIK3R3 kinase = PIK3R3 kinase (Homo sapiens, UniProt Q92569); assay: SelectScreen kinase profiling; format: biochemical; settings: NiPp 100 μM; kinases inhibited at >40% are listed
PIK3R3 kinase, sequence (P42336 whole entry partner): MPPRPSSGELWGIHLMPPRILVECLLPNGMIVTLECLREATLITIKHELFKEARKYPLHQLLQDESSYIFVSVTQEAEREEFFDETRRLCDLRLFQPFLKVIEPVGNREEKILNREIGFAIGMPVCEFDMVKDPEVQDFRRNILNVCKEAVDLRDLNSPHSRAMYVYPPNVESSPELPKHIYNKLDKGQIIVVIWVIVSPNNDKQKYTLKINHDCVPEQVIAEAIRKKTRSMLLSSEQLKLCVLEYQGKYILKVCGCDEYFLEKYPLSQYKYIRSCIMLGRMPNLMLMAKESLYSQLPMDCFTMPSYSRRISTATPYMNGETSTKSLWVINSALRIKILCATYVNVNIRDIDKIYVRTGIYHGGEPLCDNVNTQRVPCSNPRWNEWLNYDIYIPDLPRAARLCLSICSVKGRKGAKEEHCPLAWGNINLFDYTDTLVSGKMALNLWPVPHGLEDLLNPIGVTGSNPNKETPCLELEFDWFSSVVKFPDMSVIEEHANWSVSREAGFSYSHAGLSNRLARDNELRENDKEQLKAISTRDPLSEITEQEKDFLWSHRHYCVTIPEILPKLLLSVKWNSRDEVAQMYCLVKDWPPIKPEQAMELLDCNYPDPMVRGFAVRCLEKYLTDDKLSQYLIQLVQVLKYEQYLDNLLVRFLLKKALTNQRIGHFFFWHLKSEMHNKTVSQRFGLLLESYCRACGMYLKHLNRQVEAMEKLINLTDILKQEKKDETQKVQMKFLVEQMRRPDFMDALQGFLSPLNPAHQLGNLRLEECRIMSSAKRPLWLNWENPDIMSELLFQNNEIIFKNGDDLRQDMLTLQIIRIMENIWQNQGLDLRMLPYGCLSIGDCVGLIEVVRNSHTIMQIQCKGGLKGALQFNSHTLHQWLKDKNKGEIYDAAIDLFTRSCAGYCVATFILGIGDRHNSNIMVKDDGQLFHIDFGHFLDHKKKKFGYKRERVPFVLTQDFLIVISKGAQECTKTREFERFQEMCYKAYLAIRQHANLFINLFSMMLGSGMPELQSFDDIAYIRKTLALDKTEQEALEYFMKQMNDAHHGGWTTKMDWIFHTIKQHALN
Method: as §1, §2, §3

p38 MAPK β isoform = p38 MAPK β isoform (Homo sapiens, UniProt Q15759); assay: SelectScreen kinase profiling; format: biochemical; settings: NiPp 100 μM
p38 MAPK β isoform, sequence (Q15759 whole entry, canonical isoform): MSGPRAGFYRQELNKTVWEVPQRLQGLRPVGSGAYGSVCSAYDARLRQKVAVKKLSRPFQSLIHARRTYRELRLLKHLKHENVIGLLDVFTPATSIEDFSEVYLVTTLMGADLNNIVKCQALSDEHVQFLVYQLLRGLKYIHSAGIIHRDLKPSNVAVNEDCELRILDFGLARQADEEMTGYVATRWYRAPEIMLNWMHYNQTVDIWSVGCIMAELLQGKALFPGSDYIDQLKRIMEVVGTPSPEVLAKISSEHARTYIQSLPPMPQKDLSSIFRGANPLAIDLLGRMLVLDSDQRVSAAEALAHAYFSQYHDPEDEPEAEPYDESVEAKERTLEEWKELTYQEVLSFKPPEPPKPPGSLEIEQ
Method: as §1
Since NiPp treatment was associated with decreased phosphorylation of p38 MAPK in RA, a mechanism of NiPp function can kinase inhibition. Therefore, a kinase profiling assay was performed to determine the effect of NiPp on the activity of a panel of kinases in vitro. The top two kinases inhibited by NiPp were MSK1 and p38 MAPKα. Inhibition to the p38 MAPKα isoform appeared to be specific as inhibition by NiPp to the other isoforms (β, δ, and γ) in the kinaseprofiling screen were only at 5, 3, and 3% respectively. Despite high sequence homology, the isoforms have difference in tissue expression, upstream kinase activators and downstream substrates. The p38 MAPKα isoform, initially identified as a protein that underwent phosphorylation in response to endotoxin treatment and hyperosmolarity shock, plays a role in endothelial dysfunction in that inhibition of this isoform leads to improved endothelial function in animal models of cardiovascular diseases including cardiac hypertrophy, balloon injury, salt/fat induced hypertension and in hypercholesterolemic patients. The α-isoform is also a key regulator of pro-inflammatory cytokine production and itself can be activated by IL1-β. MSK1, a downstream kinase of the p38 MAPK activation (FIG. 19), has complex cell-dependent roles in inflammatory responses. In endothelial cells, MSK1 promotes CREB activation in response to TNFα.

Substance	% inhibition of p38 MAPKα (p38 MAPKα (MAPK14))	endothelial function (percent relaxation to carbachol) after IL1β injury (rat aorta)	endothelial function (percent relaxation to carbachol) after IL1β injury (rat aorta; listed as scr3NiPp3)	endothelial function (percent relaxation to carbachol) after cytokine injury (rat aorta)	inhibition of FGFR1 (FGFR1)	inhibition of CKD18 (CKD18)	inhibition of PIK3R3 kinase (PIK3R3 kinase)	% inhibition of p38 MAPK β isoform (p38 MAPK β isoform) [%]
YARAAARQARAAGSPPLA(pS)AIARR (YARAAARQARAAGSPPLA[pS]AIARR) [scr3NiPp]	not detected	did not restore	failed to restore					
YARAAARQARASPAARRA(pS)AILPG (YARAAARQARASPAARRA[pS]AILPG) [NiPp, Cell-permeant phosphopeptide mimetic of Niban: transduction domain … conjugated to the region surrounding serine 602 of Niban]		restores		improved; also recorded: restores	inhibited	inhibited	inhibited	5
YARAAARQARASPAARRASAILPG (not fully specified (residue 19)) [NiPp3]	not detected			significant improvement				
